B1: F2-02 (VHH)
VHH: QVQLVESGGGLVQAGGSLRLSCAASGRTFRSFAMGWFRQAPGKEREFVATISWWSNNTYYADSVKGRFTISRDIAKNTVYLQMNSLKPEDTAVYYCAADLGPWLTAGQYDYWGQGTQVTVSS
B2: F2-24 (VHH)
VHH: QVQLVESGGGLVQAGGSLRLSCASSGHTFNSYVMGWFRQAPGKEREFVAAIRPSGVSTYYADSVKGRFTISRDNAKNTVSLEMNSLKPEDTAVYYCAGDRDHSMMAVRRLSSYRQWGRGTQVTVSS
B3: F1-04 (VHH)
VHH: QVQLVESGGGLVQVGGSLRLSCAASERPSSNYAMGWFRQAPGKEQEFVAAIYWSGGGTAYGDSVKGRFTISKDNAKNTVYLQMNDLKPEDTGMYYCTTDHYGSWSYEYGSWGQGTQVTVSS
B4: F2-20 (VHH)
VHH: QVQLVESGGGLVQAGGSLRLSCAASGRTFSRYAMGWFRQAPGKEREFVARISWSGDITYYADSVKGRFTISRDNAKNTVYLQMNSLKPEDTAVYYCAADAILRTRPPYESDYWGQGTQVTVSS

Assays:
[1] = target: Influenza Hemagglutinin A (influenza A virus); assay: ELISA on Influenza Hemagglutinin A (1 ug/mL); 293 supernatant diluted 1:100
[2] = target: Influenza Hemagglutinin A (influenza A virus); assay: ELISA on Influenza Hemagglutinin A (1 ug/mL); 293 supernatant diluted 1:1000
[3] = target: Influenza Hemagglutinin B (influenza B virus); assay: ELISA on Influenza Hemagglutinin B (1 ug/mL); 293 supernatant diluted 1:100
[4] = target: Influenza Hemagglutinin A (influenza A virus); assay: ELISA on Influenza Hemagglutinin A (1 ug/mL); 293 supernatant diluted 1:10
[5] = target: Influenza Hemagglutinin B (influenza B virus); assay: ELISA on Influenza Hemagglutinin B (1 ug/mL); 293 supernatant diluted 1:10000
[6] = target: Influenza Hemagglutinin B (influenza B virus); assay: ELISA on Influenza Hemagglutinin B (1 ug/mL); 293 supernatant diluted 1:10
[7] = target: Influenza Hemagglutinin A (influenza A virus); assay: ELISA on Influenza Hemagglutinin A (1 ug/mL); 293 supernatant diluted 1:10000
[8] = target: Influenza Hemagglutinin B (influenza B virus); assay: ELISA on Influenza Hemagglutinin B (1 ug/mL); 293 supernatant diluted 1:1000

Binder	ELISA signal [1]	ELISA signal [2]	ELISA signal [3]	ELISA signal [4]	ELISA signal [5]	ELISA signal [6]	ELISA signal [7]	ELISA signal [8]
B1	1.09	0.73	0.863	1.21	0.266	0.826	0.405	0.61
B2	0.427	0.279	1.85	0.444	1.45	1.69	0.15	1.63
B3	2	0.366	1.63	1.76	0.205	1.47	0.058	0.738
B4	0.629	0.442	1.52	0.884	0.805	1.58	0.269	1.2

From patent publication US12065483
